Assays:
[1] = target: T1, interaction between YEATS4 and Rv3364c (Homo sapiens, UniProt O95619); format: cell-based
T1 construct: host or cells: 293 / HEK293T

[2] = target: T2, interaction between SNX9 and p47phox (Homo sapiens, UniProt Q9Y5X1); format: cell-based; conditions: HEK293T cells, Flag-Rv3364c 1, 5, 10 μg, 12 hours
T2 construct: different regions 1-595, 1-250, 250-361, and 392-595 of SNX9; p47phox plasmid as in Biomaterials 2016, 89, 1-13; host or cells: HEK293T

[3] = target: T3, endogenous SNX9 of mouse macrophages (BMDM, Raw264.7) (mouse, UniProt Q91VH2 1-595); test: anti-His co-IP from BMDM treated with 1 ug/ml rRv3364c, anti-SNX9 blot
T3 construct: also called SNC9

[4] = target: endogenous YEATS4 of mouse macrophages (BMDM, Raw264.7) (mouse, UniProt Q9CR11 1-227); test: anti-His co-IP from BMDM treated with 1 ug/ml rRv3364c, anti-YEATS4 blot
[5] = target: T4, endogenous EGFLAM of mouse macrophages (BMDM) (mouse, UniProt Q4VBE4 25-1017); test: anti-His co-IP from BMDM treated with rRv3364c, anti-EGFLAM blot
T4 sequence: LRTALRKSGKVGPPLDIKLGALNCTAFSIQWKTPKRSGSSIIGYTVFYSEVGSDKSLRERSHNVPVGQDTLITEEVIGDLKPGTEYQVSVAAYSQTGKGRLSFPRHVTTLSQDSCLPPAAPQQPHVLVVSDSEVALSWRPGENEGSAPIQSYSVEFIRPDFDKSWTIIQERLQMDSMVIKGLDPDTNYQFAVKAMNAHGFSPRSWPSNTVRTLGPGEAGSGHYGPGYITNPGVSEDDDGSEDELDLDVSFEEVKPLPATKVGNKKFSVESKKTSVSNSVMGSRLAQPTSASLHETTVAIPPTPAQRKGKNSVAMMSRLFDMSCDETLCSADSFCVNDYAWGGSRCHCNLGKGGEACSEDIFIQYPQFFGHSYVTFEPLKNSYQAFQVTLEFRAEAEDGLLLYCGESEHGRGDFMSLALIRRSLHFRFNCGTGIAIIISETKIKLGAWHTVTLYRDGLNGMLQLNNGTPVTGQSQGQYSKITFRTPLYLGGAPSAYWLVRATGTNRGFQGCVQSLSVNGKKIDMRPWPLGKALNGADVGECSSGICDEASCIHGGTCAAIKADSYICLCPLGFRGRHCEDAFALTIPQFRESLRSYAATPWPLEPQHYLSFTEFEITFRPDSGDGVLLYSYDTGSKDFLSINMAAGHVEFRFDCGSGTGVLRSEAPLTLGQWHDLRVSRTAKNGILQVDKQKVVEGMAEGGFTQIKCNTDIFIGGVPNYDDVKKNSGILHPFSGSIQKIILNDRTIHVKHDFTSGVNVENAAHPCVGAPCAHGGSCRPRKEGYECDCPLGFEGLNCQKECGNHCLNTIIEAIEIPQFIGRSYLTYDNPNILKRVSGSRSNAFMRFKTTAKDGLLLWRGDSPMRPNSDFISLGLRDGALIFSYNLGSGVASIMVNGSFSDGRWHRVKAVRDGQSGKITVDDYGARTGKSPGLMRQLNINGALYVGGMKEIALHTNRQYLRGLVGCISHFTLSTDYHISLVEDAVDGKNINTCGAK

[6] = target: SNX9 (sorting nexin 9), full-length recombinant human protein on the HuProt microarray (human, UniProt Q9Y5X1 1-595); test: HuProt human proteome microarray, biotinylated rRv3364c, streptavidin Alexa Fluor 532
[7] = target: T5, ZBTB46 (zinc finger and BTB domain-containing 46), full-length recombinant human protein on the HuProt … (human, UniProt Q86UZ6 1-589); test: as above
T5 sequence: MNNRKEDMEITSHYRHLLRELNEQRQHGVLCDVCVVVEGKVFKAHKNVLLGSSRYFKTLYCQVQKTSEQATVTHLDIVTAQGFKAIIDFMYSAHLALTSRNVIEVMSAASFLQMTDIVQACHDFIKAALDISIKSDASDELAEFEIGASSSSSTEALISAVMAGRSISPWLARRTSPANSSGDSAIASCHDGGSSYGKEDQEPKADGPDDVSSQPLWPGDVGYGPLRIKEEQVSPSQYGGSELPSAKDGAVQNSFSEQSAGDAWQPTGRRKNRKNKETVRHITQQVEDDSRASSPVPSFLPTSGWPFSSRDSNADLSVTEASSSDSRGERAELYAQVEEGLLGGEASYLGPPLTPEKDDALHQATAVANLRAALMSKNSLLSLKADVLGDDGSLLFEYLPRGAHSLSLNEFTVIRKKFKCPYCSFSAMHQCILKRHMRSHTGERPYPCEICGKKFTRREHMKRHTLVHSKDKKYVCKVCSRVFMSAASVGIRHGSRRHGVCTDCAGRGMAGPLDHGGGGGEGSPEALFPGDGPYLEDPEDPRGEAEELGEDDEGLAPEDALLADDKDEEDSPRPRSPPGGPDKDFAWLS

[8] = target: YEATS4 (YEATS domain-containing protein 4), full-length recombinant human protein on the HuProt microarray (human, UniProt O95619 1-227); test: as above
[9] = target: T6, endogenous ZBTB46 of mouse macrophages (BMDM) (mouse, UniProt Q8BID6 1-600); test: anti-His co-IP from BMDM treated with rRv3364c, anti-ZBTB46 blot
T6 sequence: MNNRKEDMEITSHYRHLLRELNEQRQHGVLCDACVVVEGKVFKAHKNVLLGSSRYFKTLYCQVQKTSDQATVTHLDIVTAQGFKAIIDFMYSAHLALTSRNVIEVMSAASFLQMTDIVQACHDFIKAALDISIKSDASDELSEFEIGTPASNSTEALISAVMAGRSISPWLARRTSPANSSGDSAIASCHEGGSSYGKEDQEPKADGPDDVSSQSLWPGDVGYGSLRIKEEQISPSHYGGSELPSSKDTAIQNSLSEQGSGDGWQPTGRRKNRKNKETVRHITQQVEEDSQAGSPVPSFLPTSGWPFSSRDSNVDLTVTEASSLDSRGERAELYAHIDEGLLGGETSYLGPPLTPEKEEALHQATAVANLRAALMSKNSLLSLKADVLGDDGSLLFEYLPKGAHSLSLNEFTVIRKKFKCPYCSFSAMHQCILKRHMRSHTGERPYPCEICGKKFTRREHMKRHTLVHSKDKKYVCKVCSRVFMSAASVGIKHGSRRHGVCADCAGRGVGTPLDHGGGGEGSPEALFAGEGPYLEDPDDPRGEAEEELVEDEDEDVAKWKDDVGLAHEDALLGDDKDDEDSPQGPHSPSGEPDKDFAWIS

endogenous YEATS4 of mouse macrophages (BMDM, Raw264.7), sequence (Q9CR11 whole entry): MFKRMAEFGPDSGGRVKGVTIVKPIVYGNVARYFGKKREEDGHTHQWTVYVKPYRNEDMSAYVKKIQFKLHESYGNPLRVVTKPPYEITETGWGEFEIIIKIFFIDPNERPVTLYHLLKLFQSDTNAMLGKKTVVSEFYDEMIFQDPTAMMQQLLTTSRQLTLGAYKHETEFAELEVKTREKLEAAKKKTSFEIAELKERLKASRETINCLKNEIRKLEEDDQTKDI
SNX9 (sorting nexin 9), full-length recombinant human protein on the HuProt microarray, sequence (Q9Y5X1 whole entry, the tested form may be a part): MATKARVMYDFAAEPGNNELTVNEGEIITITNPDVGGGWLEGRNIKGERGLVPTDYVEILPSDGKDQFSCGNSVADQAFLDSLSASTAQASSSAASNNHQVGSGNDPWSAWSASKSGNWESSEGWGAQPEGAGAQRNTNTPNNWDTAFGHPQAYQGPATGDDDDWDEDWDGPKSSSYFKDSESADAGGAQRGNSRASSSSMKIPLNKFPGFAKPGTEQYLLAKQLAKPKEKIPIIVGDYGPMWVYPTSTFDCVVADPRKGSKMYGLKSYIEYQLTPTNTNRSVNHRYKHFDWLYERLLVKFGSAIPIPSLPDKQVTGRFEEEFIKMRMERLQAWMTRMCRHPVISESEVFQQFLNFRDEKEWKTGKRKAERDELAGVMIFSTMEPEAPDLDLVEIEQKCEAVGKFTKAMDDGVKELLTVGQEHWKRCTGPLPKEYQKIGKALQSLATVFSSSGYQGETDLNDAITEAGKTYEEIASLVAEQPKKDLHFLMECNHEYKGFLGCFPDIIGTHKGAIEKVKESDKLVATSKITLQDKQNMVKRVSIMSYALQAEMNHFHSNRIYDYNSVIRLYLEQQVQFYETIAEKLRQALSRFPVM
T2 sequence (Q9Y5X1 whole entry): as the sequence (Q9Y5X1 whole entry, the tested form may be a part) above
YEATS4 (YEATS domain-containing protein 4), full-length recombinant human protein on the HuProt microarray, sequence (O95619 whole entry, the tested form may be a part): as the sequence (Q9CR11 whole entry) above, with T224A counted along it
T1 sequence (O95619 whole entry): as the sequence (Q9CR11 whole entry) above, with T224A counted along it
T3 sequence (Q91VH2 whole entry): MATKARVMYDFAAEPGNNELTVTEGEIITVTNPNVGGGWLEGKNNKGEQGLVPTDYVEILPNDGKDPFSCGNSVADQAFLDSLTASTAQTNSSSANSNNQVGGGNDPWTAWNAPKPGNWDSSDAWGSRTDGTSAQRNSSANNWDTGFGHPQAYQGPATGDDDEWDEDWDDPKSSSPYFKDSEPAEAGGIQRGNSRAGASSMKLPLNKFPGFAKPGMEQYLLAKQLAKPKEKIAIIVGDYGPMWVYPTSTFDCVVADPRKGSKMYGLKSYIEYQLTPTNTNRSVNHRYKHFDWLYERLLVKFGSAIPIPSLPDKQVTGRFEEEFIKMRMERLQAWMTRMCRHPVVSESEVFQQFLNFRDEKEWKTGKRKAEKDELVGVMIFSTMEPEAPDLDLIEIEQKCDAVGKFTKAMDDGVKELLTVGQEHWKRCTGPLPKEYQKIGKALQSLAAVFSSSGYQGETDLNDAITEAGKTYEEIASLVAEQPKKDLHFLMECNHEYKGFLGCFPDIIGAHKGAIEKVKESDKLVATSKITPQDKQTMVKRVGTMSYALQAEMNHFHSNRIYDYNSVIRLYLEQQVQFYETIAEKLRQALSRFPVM

“MKARLPDSPL [Tat-Rv3364c (1MKARLPDSPL10)]” was tested, and the “blocking of the interaction between YEATS4 and Rv3364c” value [1] was “block the interaction between YEATS4 and Rv3364c”.

With “Rv3364c: Rv3364c protein of Mycobacterium tuberculosis, expressed in 293T cells from a Flag-tagged plasmid” the “interaction between SNX9 and p47phox” value [2] was “decreased as the amount of Rv3364c increased”.

B1: recombinant Rv3364c (rRv3364c) protein, N-terminal 6xHis tag (other)
chain: MKARLPDSPLDWLVSKFAREVPGVAHALLVSVDGLPVAASEHLPRERADQLAAVTSGLASLAGGAAQLFDGGQVLQSVVEMQNGYLLLMQVGDGSALAALAATGCDIGQIGYEMAILVERVGGVVQSCRR
notes: also called His-rRv3364c; not shown: N-terminal 6xHis tag from the pRSFDuet-1 vector
B1: binds [3]; binds [4]; no binding (tested: 1 ug/ml rRv3364c) [5]. B1: binds [6]; binds [7]; binds [8]. B1: no binding (tested: 1 ug/ml rRv3364c) [9].
